Earlier results as cited in paper PMC5342242.
Where two headings read alike, the source gives them in different places.

How the values were obtained:
[1] = molecular target: DNA polymerase III α subunit (Escherichia coli) (UniProt P10443); assay: tryptophan fluorescence
[2] = molecular target: DNA polymerase III α subunit 1-280 (Escherichia coli) (UniProt P10443); assay: tryptophan fluorescence
[3] = molecular target: DNA polymerase III α subunit 917-1160 (Escherichia coli) (UniProt P10443); assay: tryptophan fluorescence
DNA polymerase III α subunit 917-1160 (Escherichia coli), sequence (P10443 917-1160): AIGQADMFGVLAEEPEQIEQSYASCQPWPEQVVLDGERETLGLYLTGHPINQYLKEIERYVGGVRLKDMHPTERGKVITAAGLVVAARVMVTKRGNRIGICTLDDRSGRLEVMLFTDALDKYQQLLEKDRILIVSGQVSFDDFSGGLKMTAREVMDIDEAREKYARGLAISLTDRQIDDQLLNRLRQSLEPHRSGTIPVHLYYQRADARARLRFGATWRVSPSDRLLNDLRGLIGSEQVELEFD

[4] = molecular target: DNA pol III alpha 917-1160 (Escherichia coli) (UniProt P10443)
DNA pol III alpha 917-1160 (Escherichia coli), sequence (P10443 917-1160): as above

[5] = molecular target: DNA pol III alpha 1-280 (Escherichia coli) (UniProt P10443)
DNA pol III alpha 1-280 (Escherichia coli), sequence (P10443 1-280): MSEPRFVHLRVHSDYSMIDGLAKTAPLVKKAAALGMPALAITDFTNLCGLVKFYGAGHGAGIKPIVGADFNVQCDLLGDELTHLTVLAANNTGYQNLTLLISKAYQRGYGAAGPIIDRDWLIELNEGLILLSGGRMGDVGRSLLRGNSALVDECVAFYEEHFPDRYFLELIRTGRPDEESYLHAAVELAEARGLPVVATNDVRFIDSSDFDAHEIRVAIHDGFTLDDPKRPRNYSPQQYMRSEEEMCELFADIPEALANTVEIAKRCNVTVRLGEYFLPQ

[6] = molecular target: DNA pol III alpha (Escherichia coli) (UniProt P10443)
DNA pol III alpha (Escherichia coli), sequence (P10443 whole entry): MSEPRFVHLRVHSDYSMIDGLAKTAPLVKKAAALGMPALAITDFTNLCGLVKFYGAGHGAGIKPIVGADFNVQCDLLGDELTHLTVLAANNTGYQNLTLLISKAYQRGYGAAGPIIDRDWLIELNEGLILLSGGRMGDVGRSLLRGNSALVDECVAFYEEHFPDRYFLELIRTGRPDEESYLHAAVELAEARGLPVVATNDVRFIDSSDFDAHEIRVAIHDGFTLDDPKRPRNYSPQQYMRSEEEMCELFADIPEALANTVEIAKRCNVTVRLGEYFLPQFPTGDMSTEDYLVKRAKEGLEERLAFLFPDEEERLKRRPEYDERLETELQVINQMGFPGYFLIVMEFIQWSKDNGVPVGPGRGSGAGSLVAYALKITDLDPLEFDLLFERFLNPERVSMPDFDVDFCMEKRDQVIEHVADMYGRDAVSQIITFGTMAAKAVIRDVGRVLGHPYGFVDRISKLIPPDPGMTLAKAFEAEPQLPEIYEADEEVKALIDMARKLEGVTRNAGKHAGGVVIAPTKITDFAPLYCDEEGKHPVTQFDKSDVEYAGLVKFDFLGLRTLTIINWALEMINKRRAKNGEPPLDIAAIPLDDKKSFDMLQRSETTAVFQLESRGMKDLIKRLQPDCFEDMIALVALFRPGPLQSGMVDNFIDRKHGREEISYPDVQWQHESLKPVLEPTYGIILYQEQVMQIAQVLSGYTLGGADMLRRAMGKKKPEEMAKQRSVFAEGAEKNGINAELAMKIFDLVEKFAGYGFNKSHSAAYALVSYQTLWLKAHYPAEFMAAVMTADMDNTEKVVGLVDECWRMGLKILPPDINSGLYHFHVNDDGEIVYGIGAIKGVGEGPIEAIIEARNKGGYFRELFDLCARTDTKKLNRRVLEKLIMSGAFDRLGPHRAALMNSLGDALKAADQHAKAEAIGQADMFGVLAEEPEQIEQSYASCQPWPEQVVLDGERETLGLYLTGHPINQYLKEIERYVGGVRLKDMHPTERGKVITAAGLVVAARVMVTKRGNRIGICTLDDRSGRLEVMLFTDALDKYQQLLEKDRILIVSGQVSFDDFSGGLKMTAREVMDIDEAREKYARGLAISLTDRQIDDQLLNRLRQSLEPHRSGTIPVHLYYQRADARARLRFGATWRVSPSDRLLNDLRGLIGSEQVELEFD

[7] = molecular target: DNA pol III alpha 917-1160 (Escherichia coli) (UniProt P10443); remark: listed apart in the source

DNA polymerase III α subunit 1-280 (Escherichia coli), sequence (P10443 1-280): as the sequence (P10443 1-280) above
DNA polymerase III α subunit (Escherichia coli), sequence (P10443 whole entry): as the sequence (P10443 whole entry) above
UmuD', sequence (P0AG11 25-139): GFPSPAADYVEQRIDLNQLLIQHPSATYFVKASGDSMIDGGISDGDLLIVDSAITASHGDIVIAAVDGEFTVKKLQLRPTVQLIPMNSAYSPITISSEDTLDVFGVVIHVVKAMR
UmuD, sequence (P0AG11 25-139): as above

| Substance | Kd [1] | Kd [2] | Kd [3] | Kd [4] | Kd [5] | Kd [6] | Kd [7] |
| --- | --- | --- | --- | --- | --- | --- | --- |
| UmuD 3A (from UniProt P0AG11) | 8.7 µM | 9.3 µM | 3.4 µM | – | – | – | – |
| UmuD (from UniProt P0AG11) | 1.1 µM | 7.3 µM | 13.9 µM | 0.7 µM | – | – | – |
| UmuD S60A (from UniProt P0AG11) | 10.6 µM | 10.3 µM | 0.7 µM | – | – | – | – |
| UmuD' (from UniProt P0AG11) | – | – | – | – | 8.6 µM | 10.9 µM | 3.8 µM |
